Common to all, as to test: cell-based or functional assay
In test [1] the target is T1, human GIP receptor (human) (UniProt P48546).
T1 sequence (looked up): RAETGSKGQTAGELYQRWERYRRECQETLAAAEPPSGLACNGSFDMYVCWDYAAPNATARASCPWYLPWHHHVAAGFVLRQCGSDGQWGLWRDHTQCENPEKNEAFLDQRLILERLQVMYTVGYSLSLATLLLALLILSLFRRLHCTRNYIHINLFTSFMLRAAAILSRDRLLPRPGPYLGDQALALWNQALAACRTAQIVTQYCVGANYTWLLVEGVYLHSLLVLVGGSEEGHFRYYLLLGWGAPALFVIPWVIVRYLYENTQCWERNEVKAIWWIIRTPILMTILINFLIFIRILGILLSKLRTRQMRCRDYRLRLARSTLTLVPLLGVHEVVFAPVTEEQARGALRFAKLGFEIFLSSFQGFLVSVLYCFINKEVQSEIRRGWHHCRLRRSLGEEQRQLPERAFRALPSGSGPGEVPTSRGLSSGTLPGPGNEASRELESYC

In the next test the target is hGLP-1R (Homo sapiens, UniProt P43220).
The target in test [2] is human glucagon receptor (human) (UniProt P47871).
Chain of human glucagon receptor (human) (P47871 26-477): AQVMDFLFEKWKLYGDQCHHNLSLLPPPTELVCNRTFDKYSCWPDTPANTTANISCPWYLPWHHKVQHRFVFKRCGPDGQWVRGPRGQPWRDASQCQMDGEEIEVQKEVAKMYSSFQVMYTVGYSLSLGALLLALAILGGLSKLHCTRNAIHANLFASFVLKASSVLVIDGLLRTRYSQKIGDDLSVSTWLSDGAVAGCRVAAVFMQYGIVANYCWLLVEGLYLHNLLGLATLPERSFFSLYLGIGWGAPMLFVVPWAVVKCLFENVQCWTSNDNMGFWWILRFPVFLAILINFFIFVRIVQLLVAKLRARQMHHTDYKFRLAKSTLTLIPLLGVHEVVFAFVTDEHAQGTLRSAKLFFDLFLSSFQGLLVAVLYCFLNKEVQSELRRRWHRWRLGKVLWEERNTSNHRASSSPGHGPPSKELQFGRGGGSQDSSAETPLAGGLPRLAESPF

Chain of hGLP-1R (P43220 24-463): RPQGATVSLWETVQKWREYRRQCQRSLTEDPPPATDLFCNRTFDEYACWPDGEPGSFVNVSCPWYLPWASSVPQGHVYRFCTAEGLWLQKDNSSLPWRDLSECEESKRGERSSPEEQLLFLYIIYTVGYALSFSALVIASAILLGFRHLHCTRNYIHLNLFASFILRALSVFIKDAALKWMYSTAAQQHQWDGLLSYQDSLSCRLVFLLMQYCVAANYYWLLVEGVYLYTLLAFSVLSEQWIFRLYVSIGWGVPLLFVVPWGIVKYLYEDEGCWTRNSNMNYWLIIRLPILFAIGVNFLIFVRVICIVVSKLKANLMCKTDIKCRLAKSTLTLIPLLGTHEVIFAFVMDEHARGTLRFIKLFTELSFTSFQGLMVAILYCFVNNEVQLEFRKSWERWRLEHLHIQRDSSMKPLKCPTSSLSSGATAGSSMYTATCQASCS

B1: Example 91 (peptide)
chain: YXQGTFTSDFSXXLDKKAQXAFIEYLLAGGPSSGAPPPSGEX
modifications: synthetic construct; SITE 2: note = 2-Aminoisobutyric Acid; SITE 12: note = L-ornithine; SITE 13: note = alpha-methyl-leucine; SITE 17: note = Lysine is chemically modified through conjugation of the epsilon-amino group of the Lysine side chain with (2-[2-(2-Amino-ethoxy)-ethoxy]-acetyl)-(gamma-Glu)
For B1, the Relative cAMP EC50 in test [1] was determined as 0.243 nM; with hGLP-1R, 3.39 nM; in test [2], 9.13 nM. Moreover, the values for the cAMP Rel EC50, nM (in the presence of 1% HSA) (in test [1]; with hGLP-1R; in test [2]) were 23.9 nM, 356 nM and 1200 nM, respectively.

B2: Example 954 (peptide)
chain: YXQGTFTSDXSQXLDKKAQXAFIEXLIEGGPSSGAPPPSGSEE
modifications: non-natural residues; Lys acylated C18 diacid; C-terminal amide; synthetic construct; SITE 2: note = 2-Aminoisobutyric Acid; SITE 10: note = 3-(4-Pyridyl)-L-alanine; SITE 13: note = alpha-methyl-leucine; SITE 17: note = Lysine is chemically modified through conjugation of the epsilon-amino group of the Lysine side chain with (2-[2-(2-Amino-ethoxy)-ethoxy]-acetyl)
With B2, the figures for the cAMP Rel EC50, nM (1% HSA) (in test [1]; with hGLP-1R; in test [2]) were 35.3 nM, 357 nM and 450 nM, respectively.

B3: Example 962 (peptide)
chain: YXQGTFTSDXSRXLDKKAQXAFIEYLIAGGPSSGAPPPSGSEE
modifications: synthetic construct; SITE 2: note = 2-Aminoisobutyric Acid; SITE 10: note = 3-(4-Pyridyl)-L-alanine; SITE 13: note = alpha-methyl-leucine; SITE 17: note = Lysine is chemically modified through conjugation of the epsilon-amino group of the Lysine side chain with (gamma-Glu)2-CO-(CH2)16-CO2H; SITE 20:
Regarding B3, the Relative cAMP EC50 in test [1] came out at 0.0972 nM; with hGLP-1R, 1.36 nM; in test [2], 3.13 nM. Further, the cAMP Rel EC50, nM (1% HSA) came to 9.71 nM in test [1], 132 nM with hGLP-1R and 485 nM in test [2].

B4: Example 961 (peptide)
chain: YXQGTFTSDXSXXLDKKAQXAFIEYLIAGGPSSGAPPPSGSEE
modifications: synthetic construct; SITE 2: note = 2-Aminoisobutyric Acid; SITE 10: note = 3-(4-Pyridyl)-L-alanine; SITE 12: note = L-ornithine; SITE 13: note = alpha-methyl-leucine; SITE 17: note = Lysine is chemically modified through conjugation of the epsilon-amino group of the Lysine side chain with (gamma-Gl)
Turning to B4, the Relative cAMP EC50 amounted to 0.167 nM in test [1], 2.52 nM in the test with hGLP-1R and 2.96 nM in test [2]. Also, the cAMP Rel EC50, nM (1% HSA) in test [1] amounted to 13.6 nM; with hGLP-1R, 216 nM; in test [2] it was 342 nM.

B5: Example 959 (peptide)
chain: YXQGTFTSDXSRXLDKKAQXAFIEXLIEGGPSSGAPPPSGSEE
modifications: Aib, 4Pal, αMeL, Me4Pal; acylated Lys; C-terminal amide; synthetic construct; SITE 2: note = 2-Aminoisobutyric Acid; SITE 10: note = 3-(4-Pyridyl)-L-alanine; SITE 13: note = alpha-methyl-leucine; SITE 17: note = Lysine is chemically modified through conjugation of the epsilon-amino group of the Lysine side chain with (gamma-Glu)2-CO-(CH2)16-CO2H; SITE 20:
Take B5: the cAMP Rel EC50, nM (1% HSA) in test [1] is 24.5 nM; in the test with hGLP-1R, 503 nM; in test [2], 316 nM.

B6: Example 955 (peptide)
chain: YXQGTFTSDXSXXLDKKAQXAFIEXLIEGGPSSGAPPPSGSEE
modifications: Aib, 4Pal, Me4Pal, Orn, alpha-methyl-Leu, lipidated Lys, amide; synthetic construct; SITE 2: note = 2-Aminoisobutyric Acid; SITE 10: note = 3-(4-Pyridyl)-L-alanine; SITE 12: note = L-ornithine; SITE 13: note = alpha-methyl-leucine; SITE 17: note = Lysine is chemically modified through conjugation of the epsilon-amino group of the Lysine side chain with (2-[2-(2-
Regarding B6, the cAMP Rel EC50, nM (1% HSA) is 42.3 nM in test [1], 1380 nM with hGLP-1R and 366 nM in test [2].

B7: Example 960 (peptide)
chain: YXQGTFTSDXSQXLDKKAQXAFIEYLIAGGPSSGAPPPSGSEE
modifications: synthetic construct; SITE 2: note = 2-Aminoisobutyric Acid; SITE 10: note = 3-(4-Pyridyl)-L-alanine; SITE 13: note = alpha-methyl-leucine; SITE 17: note = Lysine is chemically modified through conjugation of the epsilon-amino group of the Lysine side chain with (gamma-Glu)2-CO-(CH2)16-CO2H; SITE 20:
With B7, the Relative cAMP EC50 was found to be 0.124 nM in test [1], 1.51 nM with hGLP-1R and 5.5 nM in test [2]. Further, the cAMP Rel EC50, nM (1% HSA) in test [1] amounted to 14.1 nM; in the test with hGLP-1R, 161 nM; in test [2], 813 nM.

B8: Example 972 (peptide)
chain: YXQGTFTSDXSXXLDXKAQXQFIEXLIEGGPSSGAPPPSGSEE
modifications: non-natural residues; (γGlu)2-C18 diacid on Lys; C-terminal amide; synthetic construct; SITE 2: note = 2-Aminoisobutyric Acid; SITE 10: note = 3-(4-Pyridyl)-L-alanine; SITE 12: note = L-ornithine; SITE 13: note = alpha-methyl-leucine; SITE 16: note = L-ornithine; SITE 17: note = Lysine is chemically modified through conjugation of the epsilon-amino group of the Lys
Take B8: the cAMP Rel EC50, nM (1% HSA) in test [1] amounted to 30.4 nM; in the test with hGLP-1R, 327 nM; in test [2], 660 nM.

B9: Example 967 (peptide)
chain: YXQGTFTSDXSXXLDKKAQXAFIEXLIEGGPSSGAPPPSGSEE
modifications: Aib, 4Pal, Orn, Me4Pal, αMeY; acylated lysine; amide; synthetic construct; SITE 2: note = 2-Aminoisobutyric Acid; SITE 10: note = 3-(4-Pyridyl)-L-alanine; SITE 12: note = L-ornithine; SITE 13: note = alpha-methyl-leucine; SITE 17: note = Lysine is chemically modified through conjugation of the epsilon-amino group of the Lysine side chain with (gamma-Gl)
As for B9, the results for the cAMP Rel EC50, nM (1% HSA) (in test [1]; with hGLP-1R; in test [2]) were 39.5 nM, 345 nM and 508 nM, respectively.

B10: Example 965 (peptide)
chain: YXQGTFTSDXSRXLDKKAQXAFIEYLIAGGESSGAPPPSGSEE
modifications: synthetic construct; SITE 2: note = 2-Aminoisobutyric Acid; SITE 10: note = 3-(4-Pyridyl)-L-alanine; SITE 13: note = alpha-methyl-leucine; SITE 17: note = Lysine is chemically modified through conjugation of the epsilon-amino group of the Lysine side chain with (gamma-Glu)2-CO-(CH2)16-CO2H; SITE 20:
For B10, the Relative cAMP EC50 in test [1] came to 0.13 nM; with hGLP-1R, 1.39 nM; in test [2] it was 3.35 nM. The cAMP Rel EC50, nM (1% HSA) in test [1] amounted to 23.2 nM; in the test with hGLP-1R it was 194 nM; in test [2], 430 nM.

B11: Example 964 (peptide)
chain: YXQGTFTSDXSXXLDKKAQXAFIEYLIAGGESSGAPPPSGSEE
modifications: synthetic construct; SITE 2: note = 2-Aminoisobutyric Acid; SITE 10: note = 3-(4-Pyridyl)-L-alanine; SITE 12: note = L-ornithine; SITE 13: note = alpha-methyl-leucine; SITE 17: note = Lysine is chemically modified through conjugation of the epsilon-amino group of the Lysine side chain with (gamma-Gl)
B11: the Relative cAMP EC50 in test [1] stood at 0.288 nM; in the test with hGLP-1R it was 2.67 nM; in test [2] it was 2.75 nM. In addition, the cAMP Rel EC50, nM (1% HSA) in test [1] amounted to 21.4 nM; with hGLP-1R it was 267 nM; in test [2], 324 nM.

B12: Example 963 (peptide)
chain: YXQGTFTSDXSQXLDKKAQXAFIEYLIAGGESSGAPPPSGSEE
modifications: synthetic construct; SITE 2: note = 2-Aminoisobutyric Acid; SITE 10: note = 3-(4-Pyridyl)-L-alanine; SITE 13: note = alpha-methyl-leucine; SITE 17: note = Lysine is chemically modified through conjugation of the epsilon-amino group of the Lysine side chain with (gamma-Glu)2-CO-(CH2)16-CO2H; SITE 20:
In the case of B12, the Relative cAMP EC50 came out at 0.244 nM in test [1], 1.77 nM with hGLP-1R and 5.81 nM in test [2]. The values for the cAMP Rel EC50, nM (1% HSA) (in test [1]; in the test with hGLP-1R; in test [2]) were 25.1 nM, 215 nM and 900 nM, respectively.

B13: Example 973 (peptide)
chain: YXQGTFTSDXSXXLDXKAQXEFIEXLIEGGPSSGAPPPSGSEE
modifications: Aib, 4Pal, Orn, Me4Pal, αMeY; acylated lysine; amide; synthetic construct; SITE 2: note = 2-Aminoisobutyric Acid; SITE 10: note = 3-(4-Pyridyl)-L-alanine; SITE 12: note = L-ornithine; SITE 13: note = alpha-methyl-leucine; SITE 16: note = L-ornithine; SITE 17: note = Lysine is chemically modified through conjugation of the epsilon-amino group of the Lys
Take B13: the cAMP Rel EC50, nM (1% HSA) was 60.1 nM in test [1], 1140 nM in the test with hGLP-1R and 2270 nM in test [2].
